From the nanobody polyreactivity screen of Harvey et al. (2022) come the findings set out here.

This data set is described as follows: yeast display, Sf9 membrane polyspecificity reagent, FACS + sequencing; frameworks hold sequencing errors. In outline: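 A synthetic nanobody library was expressed on Saccharomyces cerevisiae BJ5465 by galactose induction for 36–48 hours. The library was stained for 1 hour at 4 °C with 10% biotinylated, detergent-solubilized Sf9 membrane reagent and enriched with streptavidin microbeads before FACS. Low and high (top ~1%) gates were set on anti-HA fluorescence for expression and streptavidin fluorescence for reagent binding, and each polyreactivity label reflects the gate of origin.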
Take “QVQLVESGGGLVQAGGSLRFICAASGRIFRRYLMGWYRQAPGKERELVARFRIRDSNTYYADSVKGRFTISRDNAKNTVYLQMNSLKPEDTAVYNCAVVANYVYSKYDYWGQGTQVTVSS”: the “polyreactivity (PSR sort gate)” value is “high polyreactivity”.

Take “QVHLVESGGGLVQAGGSLRLSCAASGFIFSCYAMGWYRQAPGKERELVATITSGGSTVYADSVKGRFTISRDNAKNTVSLEMNSLKPEDTAVYYSNVDSTLYYLSRDYDYWGQATQVTVSS”: the “polyreactivity (PSR sort gate)” value is given as “high polyreactivity”. As to “QVQLVESGGGLVQAGGSLRLSCADTGRTFSRNSMGWYIQAPGKERELVATITRGTITNYADSVKGRFTISRDNAMNTVYLQINSRKPEDTAVYYCNARTLFFPARNRCELSDYWGQGTQVTVSS”, the “polyreactivity (PSR sort gate)” value is on record as “low polyreactivity”. In the case of “QVQLVESGGALVQAGGSLRLSCAASGRTFYSYAMGWYRQAPGKERELVAAINRGASTYYADSVKGRFTISRDNAKNTDYFQMKSLKPEDTAFYYCGARLYGRHYGYWGQGTQVTVSS” it was “high polyreactivity”; in that of “HVQLVESGGGLVQAGGSLRISCAASGRIFGRNAMGWYRQAPGTERELVATISGGGSTYYADSVKGRFTISRDNAKNTVYFQMNSLKPEDTAVFYCAVGHRWWGAYAGYDYWGQGTQVTVSS”, “low polyreactivity”. In the case of “QVQLVESGGGLVQAGGSLSLSCAASGSTFSRYGMGGYRQAPGKERELVAAISYSGGGTYYADSVKGRFTISRDNAKNTVYLQMNSQKREDNAVYYCNVEYPKRANLSDYWGQGTQVTVSS”, the “polyreactivity (PSR sort gate)” value was “high polyreactivity”. In the case of “QVQLVESGGGLVQAGGSLRLSCAASGSTFWYYDMGWYRQAPGKERELVAAITSGGRTNYADSVKGRFTISRDNAKNTVYLQMNSLKPEDTAVYYCARGPLSHTALYWRGRYNYWGQGTQVTVSS”, the “polyreactivity (PSR sort gate)” value is on record as “high polyreactivity”.

Take “QVQLVESGGGLVQAGGSLRLSCAASGLILSSNAMGWYRQAPGKERELVATINRSGASTYYADSVKGRFTISRDNAKNTVYLQMNSLKPEDTAVYYCNTATSRAYRYDYWGQGSQVTVSS”: the “polyreactivity (PSR sort gate)” value is recorded as “low polyreactivity”. In the case of “QVQLVESGGGLVQAGGSLRLSCAASGLPFRFNALGWNRQAPGKERELVARISAGGGSTYYADSVKGRFTISRDNAKNTVYLQMNSLKPEDTAVYYCAVDKSTEFSSGPHVAGDDSWGQGTQVTVSS”, the “polyreactivity (PSR sort gate)” value is given as “low polyreactivity”.

Turning to “QVQLVESGGGLVQAGGSLRLSCAASGSTFNGNAMGWYRQAPGKERELVARISFDGTSTYYADSVKGRFTISRDNAKNTVYLQMNSLKPEDTAVDYCNVLFPRDHGFPGYGYWGQGTQVTVSS”, the “polyreactivity (PSR sort gate)” value was “low polyreactivity”. With “QVQIVESGGGLVQAGCSLRLSCAASGHTFTIKAMGWYRQAPGKERELVAAITFSGGRTYYADSVKGRFTISRDNAKNTVYLQMNSLKPEDTAVYYFAADNPGGSIYDYWGQGTQVNVSS”, the “polyreactivity (PSR sort gate)” value was “low polyreactivity”. To “QVQLQESGGGLVQACGSLRLSCAASGNISPQLYMGWYRQAPGKEREFVADIAEGSTTYYAESVKGRFTISRDDAKNTVYLHMISLKSEDTAVYYCAARYENAESFYYWGQGSQVTVSS” belongs “high polyreactivity”; to “QVQLVESGGGLVQAGGSLRLSCAASGFTFHNYAMGWYRQAPGKEREFVAAITRNTASTYYADSVKGRFTISRDNAKNTVYLQMNSLNPEDTAVYYCAATDKKHRTAYDSWGQGTQVTVSS”, “low polyreactivity”; to “QVQLVESRGGLVQAGGSLRLTCAAYGRIFLVYDMGWYRHAPGKERELVAAISWSTGSTYYADSVKGRFTISRDNAKNTFYFQINSLITEDTAVYYCAAEPELDDYEHDYWGQGTQLTVSS”, “low polyreactivity”.

As to “QVQLVESGGGLVQPGGSLRLSCAASGIISFYNAMGWYRPAPGKERELVAAITWSVGSTYYADSVKGRFTISRDNAKNTVYLQMNSLKPEDTAVYYCNVSPGFWRSIPLYYNLRYGYWGQGTQVTVSS”, the “polyreactivity (PSR sort gate)” value is reported as “low polyreactivity”.

On to “QDQLVESGGGLVQAGGSRRLSCAASGSIFIYAMGWYRQAPGNERELVATIDSGGSTNYADSVKGRFTISRDNAKNTFYLQMNSLKPEDTAVYYFAARPYTTYHYVDDYWGQGTQVTVSS”, for which the “polyreactivity (PSR sort gate)” value is “high polyreactivity”.

For the sequence “QVQLVESGGGLVQAGGSLRLSCAASGSIFYYYAMGWYRQAPGKERELVASITSGGRTYYADSVKGRFTISRDNAKNTVYFQMNSLKPEDTAVYYCAAVYGGLTLTRNYYWGQGTQVTVSS”, the “polyreactivity (PSR sort gate)” value was “high polyreactivity”.

Take “QVQLVESGGGLVQAGGSLRLSCAASGYTFYVYTMGWYRQAPGKERELVAAISGSGTSTYYADSVKGRFTISRDNAKNTVYLQMNSLKPEDTAVYYCAAEDYSRDVYSYDYWGQGTQVTVSS”: the “polyreactivity (PSR sort gate)” value is on record as “low polyreactivity”. Turning to “QVQLVESGGGLVQAGGSLRLSCAASGRTSGNYAMGWYRQAPGKERELVAAIRYSGSSTFYADSVKGRFTISRDNAKNTVYLQMNSLKPEDTAVYYCARDIRRKGFRYDYWGQGTQVTVSS”, the “polyreactivity (PSR sort gate)” value is on record as “high polyreactivity”. For the sequence “QVQLVESGGGLVQAGGSLRLSCAASGFTLRLNAMGWYRQAPGKERELVAAITTSDDGTYYADSVKGRFTISRDNAKNSVYLQLNSLKPEDTAVYYCAADYYSVLYDYWGQGTQVTVSS”, the “polyreactivity (PSR sort gate)” value was “low polyreactivity”. In the case of “QVQLVESGGGLVQAGGSLRLSCAASGFTFVPYDMGWYRQAPGKERELVAAITDSSGSTHYADSVKGRFTFSRDNAKNTVYLQMNSLKPEDTAVYYCAADDSSRTTYDYWGQGTQVTVSS” it was “low polyreactivity”; in that of “QVQLVESGGGLVQAGGSLRLSCAASGRTFYVNAMGWYRQAPGKETELVAAISSGSSTDYADSVKGRFTISRDNAKNTVYLQMNSLKPEDTAVYYCAKRWRRRFVDVWSLYDYWGQGTQVTVSS”, “low polyreactivity”. In the case of “QVQLVESGGGLVQAGGSLRLSCAASGSTISPNSMGWYRQAPGKERELVAAISSDASTNYADSVKGRFTISRDNAKNTVYLQRNCLTPDDTALYYCAADLWTLIYLTDTYGHWGQGTQVTVSS” it was “low polyreactivity”; in that of “QVQLVESGGGLVQAGGSLRLSCAASGRTFRDNAMGWYRQAPGKDRELVAAIDIDSSTYYADSVEGRFTISRDNAKNTVYLQMNSLKPEDTAVYYCAAESYHDGKGFPDYEYWGQGTQVTVSS”, “low polyreactivity”; in that of “QVQLVESGGGLVQAGGSLRLSCAASGSIFYYYTMGWDRQAPGKERELVADITYRGGSTYYADSVKGRFTISRDNAKNTVYLLMNSLKPEDTAVNFCAAASLVRGGHFDYWGQGTQVTVSS”, “high polyreactivity”. Consider “QVQLVESGVGLVQAGGSLRLSCAASGSTFDTYAMGWYRQAPGKERELVAAITSSGSTYYADSVKGRFTISRDNAKNTVYLQMNSLKPEDTAVYYCAADLSYLYAHNPGDYWGQGTQVTVSS”, for which the “polyreactivity (PSR sort gate)” value is given as “low polyreactivity”. In the case of “QVQHVESGGGLVQAGGSLRLSCAASGIIFDGNVMGWDRQAPGKEREFVASISISGGSTSYADSVKGRFTISRDNAKNTVYLQMNSLKPEDTAVYYCNTDVGYGRVCRWRYHGDYWGQGTQVTVSS” it was “low polyreactivity”; in that of “QVQLVESGGGLVQAGGSLRLICDASGIIFFPYAMGWYRQAPGKEREFVAAIRATGDNTYYADSVKGRFTISRDNAKNTVYLQMNSLKPEDTAVYYCAADRGTYQVDYWGQGTQVTVSS”, “low polyreactivity”; in that of “QDQLVESGGGLVQAGGSLRLSCAASGSTFYWYTMGWYRQAPGKESEMVATITSVGRTNYADSVKGRFTISRDNAKNTVYLQMNSLKPEDTAVYYCAASKARWARGGSKYYYWGQGTQVTVSS”, “high polyreactivity”.

As for “QVQLVESGGGLVQAGGSLRLSCAASGRTSVRNAMGWYRQAPGKERELVAAISRRGTRTYYADSVKGRFTISRDNAKNTVYLQMNSLKPEDTAVYYCAASNGYQAVTYDYWGQGTQVTVSS”, the “polyreactivity (PSR sort gate)” value is given as “high polyreactivity”.

“QVQLVESGGGLVQAGGSLRLICAASGFIFNAYAMGWYRQAPGKERELVAAISTRGSNTYYADSVKGRFTISRDNAKNTVYLQMNSLKPEDTAVYYCNRVFSYQYKRDYWGQGTQVTVSS”: the “polyreactivity (PSR sort gate)” value is listed as “high polyreactivity”. With “QVQLVESGGGLVQAGGSLRLSCAASGSTFGRNALGWYRQAPGKERELVASISWGGGSTYYADSVKGRFTISRDNSKNTVYLQMNSLKTEDTAVYYCNARRFLWSQLSGSFSYDYWGQGTQVTVSS”, the “polyreactivity (PSR sort gate)” value is “high polyreactivity”. To “QVQLVESGGGLVQAGGSGRLSCAASGRTTRDYAMGWYRQAPGKERELVAAIRWRGVSTYYADSVKGRFTISRDNAKNTVDVQMNSLKPEDTAVYYCAKRESVSTSAGKGAMDSWGQGTQVTVSS” belongs “high polyreactivity”.

For the sequence “QVQLVESGGGLVQAGGSLRLSCAASGRTIEGYAMGCYRQAPGKERELVAAISRRGGSTYYADSVKGRFTISRDNAKNTVYLQMNSLKPEDTAVYYCAARDGSTGAVRYYYWGQGTQVTVSS”, the “polyreactivity (PSR sort gate)” value is “high polyreactivity”.

Take “QVQLVESGGGLVQAGGSLRLSCAASGFISYTYMGWYRQAPGKERELVAGITGSGGSTYYADSVKGRFTISRDNAKNTVYLQMNSLKPEDTAVYYCAAERPRRSPDGLNYWGQGTQVTVSS”: the “polyreactivity (PSR sort gate)” value is on record as “high polyreactivity”.

Consider “QVQLVESGGGVVQAGGSLRLSCAASGRIFVVYVMGWYRQAPGKEREFVAAITWGGGNTYYADSVKGRFTISRDNAKNTVYLQMNSLKPEDTAVYYCAAADGDDTTFRYDYWGQGTQVTVSS”, for which the “polyreactivity (PSR sort gate)” value is on record as “low polyreactivity”. Turning to “QVQLVESGGGLVQAGGSLRLSCAASGRIFKSYAMGWYRQAPGKERELVAGITSGGGTYYADSLKGRFTISRDNAKTTVYLQMNSLKPEDTPVYYCATRTYRESTYDYWGQGTQVTVSS”, the “polyreactivity (PSR sort gate)” value is given as “high polyreactivity”. Consider “QVQLVESGGGLVQAGGSLRLSCAASGSTFRIYAMGWYRQAPGKERELVAAISSGGRTNYADSVKGRFTISRDNAKNTVYLQMNSLKPEDTAVYYCNAVFLPTYHFDYWGQGTQVTVSS”, for which the “polyreactivity (PSR sort gate)” value is listed as “high polyreactivity”. For “QVQVVESGGGLVQAGGSLRLSCAASGRTFYPYAMGWYRQAPGKERELVAAISSSGGSTYYADSVKGRFTISRDNAKNTDYLPMNSLKPEDTAVYYCAAVASKYKYTGGMDYWGQGTQVTVSS”, the “polyreactivity (PSR sort gate)” value was “high polyreactivity”.

As for “QVQLVESGGGLVQAGGSLRLSCAASGFTFGLYGMGWYRQAPGKERELVAAISSSGGDTYYADSVKGRFTISRDNAKNTVYLQMNSLKPEDTAVYYCAATADWATHDYWGQGTQVTVSS”, the “polyreactivity (PSR sort gate)” value is “low polyreactivity”.

For the sequence “QVQLVESGGGLVQAGGSLRLSCAASGSILSTYAKGWYRQAPGKERELVASISSNAGSTYYADSVKGRFTISRDNAKNTVYLQMNSLKPEDTAVYYCNKVYGGGTYDYWGQGTQVTVSS”, the “polyreactivity (PSR sort gate)” value is on record as “low polyreactivity”.
